Target: T1, LSD2 (Homo sapiens, UniProt Q8NB78)
T1 sequence (Q8NB78 1-822): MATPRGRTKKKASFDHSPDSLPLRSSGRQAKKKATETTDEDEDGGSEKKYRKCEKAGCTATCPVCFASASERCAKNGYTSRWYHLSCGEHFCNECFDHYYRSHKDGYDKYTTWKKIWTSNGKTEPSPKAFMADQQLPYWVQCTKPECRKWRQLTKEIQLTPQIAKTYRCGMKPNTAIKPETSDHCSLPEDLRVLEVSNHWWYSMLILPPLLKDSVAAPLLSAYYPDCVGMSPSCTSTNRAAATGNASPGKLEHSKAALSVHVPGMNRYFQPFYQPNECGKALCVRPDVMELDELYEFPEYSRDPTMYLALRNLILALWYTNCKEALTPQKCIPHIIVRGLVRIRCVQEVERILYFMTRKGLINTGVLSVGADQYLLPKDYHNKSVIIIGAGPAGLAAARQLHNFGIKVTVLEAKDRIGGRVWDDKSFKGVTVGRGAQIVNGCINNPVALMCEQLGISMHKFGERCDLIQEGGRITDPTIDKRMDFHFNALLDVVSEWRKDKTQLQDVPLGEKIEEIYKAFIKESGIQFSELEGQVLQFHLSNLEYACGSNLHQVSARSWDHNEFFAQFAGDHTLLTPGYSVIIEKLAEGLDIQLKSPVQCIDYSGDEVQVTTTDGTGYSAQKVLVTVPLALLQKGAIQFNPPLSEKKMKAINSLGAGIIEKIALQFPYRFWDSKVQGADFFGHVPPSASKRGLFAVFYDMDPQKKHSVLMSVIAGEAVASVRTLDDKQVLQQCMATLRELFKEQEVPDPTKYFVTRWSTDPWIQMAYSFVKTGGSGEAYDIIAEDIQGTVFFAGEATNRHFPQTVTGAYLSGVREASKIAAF
Test: Immunofluorescence of histone methylation in cells coexpressing LSD2 and NPAC
Format: cell-based
Set-up: expressed in transfected cells; host or cells: U2OS
Method: FIG. 1A depicts a schematic of NPAC domain structure. AT, AT-hook motif. PWWP, Pro-Trp-Trp-Pro domain (SEQ ID NO: 63). […] Tandem affinity purified NPAC and LSD2 complexes were incubated with nucleosomes purified from HeLa, and analyzed by immunoblot using indicated antibodies. […] The amount of LSD2 enzyme and NPAC cofactor proteins used in each reaction is indicated. Demethylation was assessed by Immunoblot using indicated antibodies. […] Representatives with similar levels of GFP-LSD2 are shown. See also FIGS. 7A-7D.
FIG. 7A depicts the determination of the threshold dosage of purified LSD2 required for nucleosomal H3K4 demethylation. 2 μg of nucleosomes purified from HeLa were incubated with various amount of His-LSD2 proteins for 2 hours at 30° C. The demethylation reactions were analyzed by immunoblotting using indicated antibodies. […] 2 μg LSD1 in combination with 5 μg purified NPAC or CoREST protein was used for histone demethylase assays. […] Transfected cells are marked by arrows; cells shown significant reduction of H3K4me1 are marked by dotted circles. […] In contrast, coexpression of LSD2 and NPAC induces obvious global decrease of H3K4me1. […] FIG. 7D depicts immunofluorescence analyses of H3K9me2 demethylation in cells coexpressing LSD2 and full-length NPAC.

- Change of H3K9me2 and other histone marks in cells (coexpression of NPAC and LSD2): no detectable changes
B1: NPAC: full-length human NPAC/GLYR1 (protein ID: Q49A26), recombinant, LSD2 cofactor (protein)
chain: MAAVSLRLGDLVWGKLGRYPPWPGKIVNPPKDLKKPRGKKCFFVKFFGTEDHAWIKVEQLKPYHAHKEEMIKINKGKRFQQAVDAVEEFLRRAKGKDQTSSHNSSDDKNRRNSSEERSRPNSGDEKRKLSLSEGKVKKNMGEGKKRVSSGSSERGSKSPLKRAQEQSPRKRGRPPKDEKDLTIPESSTVKGMMAGPMAAFKWQPTASEPVKDADPHFHHFLLSQTEKPAVCYQAITKKLKICEEETGSTSIQAADSTAVNGSITPTDKKIGFLGLGLMGSGIVSNLLKMGHTVTVWNRTAEKCDLFIQEGARLGRTPAEVVSTCDITFACVSDPKAAKDLVLGPSGVLQGIRPGKCYVDMSTVDADTVTELAQVIVSRGGRFLEAPVSGNQQLSNDGMLVILAAGDRGLYEDCSSCFQAMGKTSFFLGEVGNAAKMMLIVNMVQGSFMATIAEGLTLAHVTGQSQQTLLDILNQGQLASIFLDQKCQNILQGNFKPDFYLKYIQKDLRLAIALGDAVNHPTPMAAAANEVYKRAKALDQSDNDMSAVYRAYIH
- Depletion of di- and mono-methylated H3K4 in cells (coexpression of NPAC and LSD2 vs LSD2 alone, U2OS): much more pronounced depletion of di- and mono-methylated H3K4 in cells than expressing LSD2 alone

From patent publication US9745384B2, “Peptides useful for modulating histone demethylase function” (The Brigham and Women's Hospital, Inc., priority 2012, dated 2017)
